Source: PMC10725492 (2023)
No end group written: not given here. *: point of attachment. Palmitoyl = CCCCCCCCCCCCCCCC(=O)*

Target: recombinant APP N-terminal (18-612) fragment (UniProt P05067-4 18-612)
Assay: SPR

Sequence of recombinant APP N-terminal (18-612) fragment (P05067 other isoform, or with tags, fused parts or gaps): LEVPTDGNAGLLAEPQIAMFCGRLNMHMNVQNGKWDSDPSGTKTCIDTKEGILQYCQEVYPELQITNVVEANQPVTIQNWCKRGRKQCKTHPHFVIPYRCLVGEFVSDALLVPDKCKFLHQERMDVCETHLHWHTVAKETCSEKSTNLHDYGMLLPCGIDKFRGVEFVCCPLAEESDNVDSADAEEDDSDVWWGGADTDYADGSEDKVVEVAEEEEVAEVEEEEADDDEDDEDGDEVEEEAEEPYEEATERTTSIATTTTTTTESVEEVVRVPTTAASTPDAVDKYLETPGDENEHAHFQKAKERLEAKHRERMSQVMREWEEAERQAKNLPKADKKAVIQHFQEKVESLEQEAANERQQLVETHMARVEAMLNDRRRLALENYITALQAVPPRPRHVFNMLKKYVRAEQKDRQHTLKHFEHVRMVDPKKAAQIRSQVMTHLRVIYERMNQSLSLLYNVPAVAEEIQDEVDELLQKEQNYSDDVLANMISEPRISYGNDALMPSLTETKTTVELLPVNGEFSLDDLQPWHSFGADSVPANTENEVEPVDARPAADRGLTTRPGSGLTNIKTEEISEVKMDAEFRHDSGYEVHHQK

KKKKKKLKVRLASHLRK(Palmitoyl)ELRKRLLRDA [AY51 peptide] was tested, and the koff was 0.000356 s⁻¹.
